Data on 1 molecule can be found in patent US20260085105A1 (Amgen, published 2026).

The target of test [1] is T1, MAGE-A4 (100% identical in MAGEA8) peptide on HLA-A*02:01 (human).
T1 peptide: KVLEHVVRV
Nature of the test: cells that express the antigen: NCI-H1755; TCR-Ts of three donors; full-length, on cells.

Test [2] concerns the target T2, KIAA1033 peptide on HLA-A*02:01 (human).
T2 peptide: KVLNKVITV
Nature of the test: killing.

The target in test [3] is T3, HTR5A peptide on HLA-A*02:01 (human).
T3 peptide: KVLETLVTV
Nature of the test: killing.

In test [4] the target is T4, PTRF peptide on HLA-A*02:01 (human).
T4 peptide: KLLEKVRKV
As to the kind of experiment: killing.

The target in test [5] is T5, MAGE-A4 (100% identical in MAGEA8) peptide on HLA-A*02:07 (human).
T5 peptide: KVLEHVVRV
As to the kind of experiment: killing.

The target of test [6] is T6, GPC5 peptide on HLA-A*02:01 (human).
T6 peptide: KLLEQVNRI
As to the kind of experiment: killing.

Test [7] has as its target T7, MIA3 peptide on HLA-A*02:01 (human).
T7 peptide: KVLDKVFRA
Nature of the test: killing.

Test [8] has as its target T8, MADD peptide on HLA-A*02:01 (human).
T8 peptide: ILLEHKVVL
Nature of the test: killing.

The target in test [9] is T9, HERC4 peptide on HLA-A*02:01 (human).
T9 peptide: KVLEILHRV
As to the kind of experiment: killing.

In test [10] the target is T10, ANO5 peptide on HLA-A*02:01 (human).
T10 peptide: IVMEHVVFL
Nature of the test: killing.

In test [11] the target is T11, HNRNPR peptide on HLA-A*02:01 (human).
T11 peptide: KVWGNVVTV
As to the kind of experiment: killing.

Test [12] has as its target T12, CNOT1 peptide on HLA-A*02:01 (human).
T12 peptide: KVLGIVVGV
As to the kind of experiment: killing.

The target of test [13] is T13, RG1L peptide on HLA-A*02:01 (human).
T13 peptide: FLLETVVRV
Nature of the test: killing.

The target in test [14] is T14, TP2 peptide on HLA-A*02:01 (human).
T14 peptide: KILEDVVGV
Nature of the test: killing.

The target in test [15] is T15, GRP78 peptide on HLA-A*02:01 (human).
T15 peptide: KVTHAVVTV
Nature of the test: killing.

In test [16] the target is T16, AXIN1 peptide on HLA-A*02:01 (human).
T16 peptide: ILDEHVQRV
Nature of the test: killing.

Test [17] addresses T17, NSD1 peptide on HLA-A*02:01 (human).
T17 peptide: KVQEQVHKV
Nature of the test: killing.

The target in test [18] is T18, SYNE3 peptide on HLA-A*02:01 (human).
T18 peptide: KLLDLQVRV
Nature of the test: killing.

Test [19] deals with T19, MAGE-A4 (100% identical in MAGEA8) peptide on HLA-A*02:05 (human).
T19 peptide: KVLEHVVRV
Nature of the test: killing.

Test [20] concerns the target T20, ATAD2 peptide on HLA-A*02:01 (human).
T20 peptide: KILEALQRV
Nature of the test: killing.

Test [21] concerns the target T21, TSC1 peptide on HLA-A*02:01 (human).
T21 peptide: SLLGHVIRL
Nature of the test: killing.

The target of test [22] is T22, PSME2 peptide on HLA-A*02:01 (human).
T22 peptide: KVLERVNAV
Nature of the test: killing.

The target of test [23] is T23, TRMT1L peptide on HLA-A*02:01 (human).
T23 peptide: VALEHFVLV
As to the kind of experiment: killing.

B1: TCR3 of Tables 1A and 1B (TCR2 of the examples) (TCR, V domains shown)
Valpha: GESVGLHLPTLSVQEGDNSIINCAYSNSASDYFIWYKQESGKGPQFIIDIRSNMDKRQGQRVTVLLNKTVKHLSLQIAATQPGDSAVYFCAEASPRQDTGRRALTFGSGTRLQVQP
Vbeta: DAGVTQSPTHLIKTRGQQVTLRCSPKSGHDTVSWYQQALGQGPQFIFQYYEEEERQRGNFPDRFSGHQFPNYSSELNVNALLLGDSALYLCASSLWTGSGELFFGEGSRLTVL
Take B1: the “E:T EC50” value in test [1] was 0.01 effector:target ratio. In addition, the binding result in test [2] is given as “no recognition”; in test [3] it was “no recognition”; in test [4] it was “no recognition”; in test [5] it was “recognises”; in [6] it was “no recognition”; in test [7], “no recognition”. Also, the binding result in test [8], in test [9], in test [10], in [11], in test [12] and in test [13] was “no recognition” in each case. Besides, the binding result in test [14] was “no recognition”; in test [15] it was “no recognition”; in test [16], “no recognition”; in test [17] it was “no recognition”; in [18], “no recognition”; in test [19], “recognises”. Further, the binding result in [20], in test [21], in test [22] and in [23] was “no recognition” throughout.
